Measurements reported in patent US12338277 (ROCKEFELLER UNIVERSITY, dated 2025).
Changes are numbered by the printed parent chain. Where two headings read alike, the source gives them in different places.

Columns and labels:
gp120GD324-5AA = test: ELISA, coated antigen, OD405 vs [IgG] (M)
YU-2 gp120 [1] = molecular target: T1, YU-2 gp120 (HIV-1 (strain YU-2), UniProt P35961 32-498); test: SPR, IgG over immobilised YU-2 gp120, 1:1 fit, apparent constant
T1 construct: domain: gp120; also called gp120WT; intact YU-2 gp120

gp120NNT301-303AAA = test: ELISA, coated antigen, OD405 vs [IgG] (M)
YU-2 gp120 [2] = molecular target: T1, YU-2 gp120; test: ELISA, coated antigen, OD405 vs [IgG] (M)
YU-2 gp120 [3] = molecular target: T1, YU-2 gp120; test: ELISA, coated antigen, OD405 vs [IgG] (M); remark: listed apart in the source
YU-2 gp120 [4] = molecular target: T1, YU-2 gp120; test: ELISA, coated antigen, OD405 vs [IgG] (M); remark: listed apart in the source
YU-2 gp120 [5] = molecular target: T1, YU-2 gp120; test: ELISA, coated antigen, OD405 vs [IgG] (M); remark: listed apart in the source
YU-2 gp120 [6] = molecular target: T1, YU-2 gp120; test: ELISA, coated antigen, OD405 vs [IgG] (M); remark: listed apart in the source
YU-2 gp120 [7] = molecular target: T1, YU-2 gp120; test: ELISA, coated antigen, OD405 vs [IgG] (M); remark: listed apart in the source
YU-2 gp120 [8] = molecular target: T1, YU-2 gp120; test: SPR, apparent KD on gp120, bar graph
[9] = molecular target: HIV-1 CNE19 envelope on pseudovirus (HIV-1 (strain CNE19)); test: cell-based or functional assay
[10] = molecular target: HIV-1 62357_14_D3_4589 envelope on pseudovirus (HIV-1 (strain 62357_14_D3_4589)); test: cell-based or functional assay

B1: 10-410 (antibody, V domains shown)
VH: QVQLQESGPGLVKPPETLSLTCSVSGASVNDAYWSWIRQSPGKRPEWVGYVHHSGDTNYNPSLKRRVTFSLDTAKNEVSLKLVALTAADSAVYFCARALHGKRIYGIVALGELFTYFYMDVWGKGTTVTVSS
VL: SFVSVAPGQTARITCGEESLGSRSVIWYQQRPGQAPSLIIYNNNDRPSGIPERFSGSPGSTFGTTATLTITSVEAGDEADYYCHIWDSRRPTNWVFGEGTTLTVL
binding result (gp120GD324-5AA): binds
Ka (YU-2 gp120 [1]): 2.1e+07 M⁻¹
Kd (YU-2 gp120 [1]): 47 nM
koff (YU-2 gp120 [1]): 0.0017 s⁻¹
binding result (gp120NNT301-303AAA): binds

B2: 10-1074 (antibody, V domains shown)
VH: QVQLQESGPGLVKPSETLSVTCSVSGDSMNNYYWTWIRQSPGKGLEWIGYISDRESATYNPSLNSRVVISRDTSKNQLSLKLNSVTPADTAVYYCATARRGQRIYGVVSFGEFFYYYSMDVWGKGTTVTVSS
VL: SYVRPLSVALGETARISCGRQALGSRAVQWYQHRPGQAPILLIYNNQDRPSGIPERFSGTPDINFGTRATLTISGVEAGDEADYYCHMWDSRSGFSWSFGGATRLTVL
EC50 (read off the curve) (YU-2 gp120 [2]): ~0.5 nM
EC50 (read off the curve) (YU-2 gp120 [3]): ~0.3 nM
EC50 (read off the curve) (YU-2 gp120 [4]): ~0.5 nM
EC50 (read off the curve) (YU-2 gp120 [5]): ~0.7 nM
EC50 (read off the curve) (YU-2 gp120 [6]): ~0.3 nM
binding result (gp120GD324-5AA): binds
Ka (YU-2 gp120 [1]): 1.1e+08 M⁻¹
Kd (YU-2 gp120 [1]): 9.5 nM
koff (YU-2 gp120 [1]): 0.00019 s⁻¹
EC50 (read off the curve) (gp120NNT301-303AAA): ~0.1 nM
EC50 (read off the curve) (YU-2 gp120 [7]): ~0.1 nM

B3: 10-847 (antibody, V domains shown)
VH: B2 VH with E55A
VL: B2 VL with R15S
EC50 (read off the curve) (YU-2 gp120 [2]): ~0.3 nM
EC50 (read off the curve) (YU-2 gp120 [3]): ~0.2 nM
EC50 (read off the curve) (YU-2 gp120 [4]): ~0.3 nM
EC50 (read off the curve) (YU-2 gp120 [5]): ~0.4 nM
EC50 (read off the curve) (YU-2 gp120 [6]): ~0.3 nM
binding result (gp120GD324-5AA): binds
Ka (YU-2 gp120 [1]): 1.1e+08 M⁻¹
Kd (YU-2 gp120 [1]): 8.9 nM
koff (YU-2 gp120 [1]): 0.00018 s⁻¹
EC50 (read off the curve) (gp120NNT301-303AAA): ~0.1 nM
EC50 (read off the curve) (YU-2 gp120 [7]): ~0.1 nM

B4: 10-1341 (antibody, V domains shown)
VH: B2 VH with K75T, K124R
VL: B2 VL
EC50 (read off the curve) (YU-2 gp120 [2]): ~0.2 nM
EC50 (read off the curve) (YU-2 gp120 [3]): ~0.4 nM
EC50 (read off the curve) (YU-2 gp120 [4]): ~0.5 nM
EC50 (read off the curve) (YU-2 gp120 [5]): ~0.6 nM
EC50 (read off the curve) (YU-2 gp120 [6]): ~0.5 nM
binding result (gp120GD324-5AA): binds
Ka (YU-2 gp120 [1]): 1.2e+08 M⁻¹
Kd (YU-2 gp120 [1]): 8.2 nM
koff (YU-2 gp120 [1]): 0.00016 s⁻¹
EC50 (read off the curve) (gp120NNT301-303AAA): ~0.09 nM
EC50 (read off the curve) (YU-2 gp120 [7]): ~0.09 nM

B5: 10-1074GM (antibody, V domains shown)
VH: B2 VH with Y32S, D53K, R54S, T58N, R100H, Y115T
VL: B2 VL
notes: also called 10-1074 glycomutant
fold difference of KD, wildtype vs glycomutant (YU-2 gp120 [8]): 1.8 fold
IC50, TZM-bl neutralization [9]: 0.19 µg/mL
IC50, TZM-bl neutralization [10]: 40.8 µg/mL
